# In patent US20120316071A1 (published 2012):
# T1: rHuman Erythropoietin R/Fc Chimera, CF (R&D Systems Cat#963-ER) (human, UniProt P19235 25-250)
# T1 construct: Bought recombinant protein; also called EPO R; EPO R/Fc; Fc part of the bought chimera not given
# T1 sequence (looked up): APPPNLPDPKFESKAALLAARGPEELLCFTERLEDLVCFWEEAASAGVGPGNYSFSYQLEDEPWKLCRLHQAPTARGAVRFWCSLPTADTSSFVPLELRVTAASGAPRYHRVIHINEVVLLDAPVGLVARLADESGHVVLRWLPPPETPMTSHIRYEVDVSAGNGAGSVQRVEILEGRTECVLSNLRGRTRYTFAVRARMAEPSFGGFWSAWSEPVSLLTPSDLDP
# T2: rHuman Erythropoietin R/Fc Chimera, CF (human, UniProt P19235 25-250)
# T2 construct: Bought protein; also called EPO R; EPO R/Fc; Fc part of the bought chimera not given
# T2 sequence (looked up): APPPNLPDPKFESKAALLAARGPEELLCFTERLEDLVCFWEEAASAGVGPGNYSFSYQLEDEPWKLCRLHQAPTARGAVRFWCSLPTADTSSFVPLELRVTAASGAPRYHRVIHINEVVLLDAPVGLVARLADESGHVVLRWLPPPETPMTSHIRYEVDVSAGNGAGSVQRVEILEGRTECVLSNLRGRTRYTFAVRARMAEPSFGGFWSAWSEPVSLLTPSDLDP
# Columns and labels:
# [1] = molecular target: T3, Recombinant Human DLL4 (delta-like protein 4) (human, UniProt Q9NR61 27-524); assay: ELISA, Fab on coated recombinant human DLL4, signal minus noise
# T3 construct: Bought recombinant human DLL4 (R&D Systems Cat#1506-D4/CF); also called rHuman DLL4; Delta-like 4
# [2] = molecular target: T3, Recombinant Human DLL4 (delta-like …); assay: ECL (MSD electrochemiluminescence) binding assay, Fab on immobilised recombinant human DLL4
# [3] = molecular target: T4, rHuman Notch-1/Fc Chimera, CF (R&D Systems Cat#3647-TK) (human, UniProt P46531 19-526); assay: ECL multispot (MSD) binding assay, antigen spotted on plate, Fab 0.04 uM;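 note: purified Fab incubated 1 h at 20 °C on antigen spots, detected via TAG-labelled antibody, ECL read against each well's blank, with signal-to-blank of at least 4 scored as binder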
# T4 construct: Bought recombinant protein; Fc part of the bought chimera not given
# [4] = molecular target: T5, rHuman EGF R/Fc Chimera, CF (R&D Systems Cat#344-ER) (human, UniProt P00533 25-645); assay: as above
# T5 construct: Bought recombinant protein; also called epidermal growth factor receptor; Fc part of the bought chimera not given
# [5] = molecular target: T6, rHuman P-Cadherin/Fc Chimera, CF (R&D Systems Cat#861-PC) (human, UniProt P22223 108-654); assay: as above
# T6 construct: Bought recombinant protein; Fc part of the bought chimera not given
# [6] = molecular target: T7, Recombinant Human DLL4 (R&D Systems Cat#1506-D4/CF) (human, UniProt Q9NR61 27-524); assay: as above
# T7 construct: Bought recombinant protein; also called delta-like protein 4; rHuman DLL4
# [7] = molecular target: T8, rHuman ErbB2/Fc Chimera, CF (R&D Systems Cat#1129-ER) (human, UniProt P04626 23-652); assay: as above
# T8 construct: Bought recombinant protein; also called human epidermal growth factor 2 receptor; Fc part of the bought chimera not given
# [8] = molecular target: T1, rHuman Erythropoietin R/Fc Chimera, CF …; assay: as above
# [9] = molecular target: T9, rHuman CD44/Fc Chimera, CF (R&D Systems Cat#3660-CD) (human, UniProt P16070 21-220); assay: as above
# T9 construct: Bought recombinant protein; Fc part of the bought chimera not given
# [10] = molecular target: T10, rHuman HGF R/c-MET/Fc Chimera, CF (R&D Systems Cat#358-MT/CF) (human, UniProt P08581 25-932); assay: as above
# T10 construct: Bought recombinant protein; also called HGF R/Fc; hepatocyte growth factor receptor; Fc part of the bought chimera not given
# T10 sequence (P08581 25-932, change not shown): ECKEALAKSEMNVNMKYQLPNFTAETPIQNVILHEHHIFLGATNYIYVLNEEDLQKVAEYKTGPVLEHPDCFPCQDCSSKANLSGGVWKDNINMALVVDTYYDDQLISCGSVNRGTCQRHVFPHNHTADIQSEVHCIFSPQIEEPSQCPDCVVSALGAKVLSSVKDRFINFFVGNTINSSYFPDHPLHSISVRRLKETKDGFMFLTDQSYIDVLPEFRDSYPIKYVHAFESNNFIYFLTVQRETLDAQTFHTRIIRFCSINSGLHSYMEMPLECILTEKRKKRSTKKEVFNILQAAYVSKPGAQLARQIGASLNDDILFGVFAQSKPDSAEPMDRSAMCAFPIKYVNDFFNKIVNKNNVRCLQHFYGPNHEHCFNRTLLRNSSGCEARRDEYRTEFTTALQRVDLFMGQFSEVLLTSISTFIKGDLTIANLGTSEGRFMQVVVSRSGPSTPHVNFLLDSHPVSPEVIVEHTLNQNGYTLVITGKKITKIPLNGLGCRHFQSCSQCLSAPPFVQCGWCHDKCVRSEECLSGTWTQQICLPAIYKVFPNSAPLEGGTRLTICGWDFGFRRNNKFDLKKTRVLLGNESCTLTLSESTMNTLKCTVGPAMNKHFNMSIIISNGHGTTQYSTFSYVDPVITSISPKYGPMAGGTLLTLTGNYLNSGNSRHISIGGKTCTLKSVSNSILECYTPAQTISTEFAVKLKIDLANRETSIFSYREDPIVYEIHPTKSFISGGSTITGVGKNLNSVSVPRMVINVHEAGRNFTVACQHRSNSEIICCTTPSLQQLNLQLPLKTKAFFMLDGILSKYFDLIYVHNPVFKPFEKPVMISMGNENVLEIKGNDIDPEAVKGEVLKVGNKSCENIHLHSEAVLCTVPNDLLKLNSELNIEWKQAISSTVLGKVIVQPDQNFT
# [11] = molecular target: T11, Recombinant Human DLL4 (delta-like protein 4) (human, UniProt Q9NR61 27-524); assay: SPR, Fab on recombinant human DLL4; column head x10^-3 applied
# T11 construct: Bought recombinant protein; also called rHuman DLL4; Delta-like 4
# [12] = molecular target: T11, Recombinant Human DLL4 (delta-like …); assay: SPR, Fab on recombinant human DLL4
# [13] = molecular target: T11, Recombinant Human DLL4 (delta-like …); assay: SPR, Fab on recombinant human DLL4; column head x10^5 applied
# [14] = molecular target: T12, Recombinant Human DLL4 (delta-like protein 4) (human, UniProt Q9NR61 27-524); assay: ELISA, Fab on plate-coated recombinant human DLL4
# T12 construct: also called rHuman DLL4; Delta-like 4
# [15] = molecular target: T13, Recombinant Human DLL4 (R&D Systems Cat#1506-D4/CF) (human, UniProt Q9NR61 27-524); assay: ELISA and 96-well plate ECL
# T13 construct: bought recombinant protein; also called rHuman DLL4; delta-like protein 4
# [16] = molecular target: T14, rHuman CD44/Fc Chimera, CF (human, UniProt P16070 21-220); assay: ECL multispot (MSD) binding assay, antigen spotted on plate, 100 nM Fab
# T14 construct: Bought protein; Fc part of the bought chimera not given
# [17] = molecular target: T15, rHuman ErbB2/Fc Chimera, CF (human, UniProt P04626 23-652); assay: as above
# T15 construct: Bought protein; also called human epidermal growth factor 2 receptor; Fc part of the bought chimera not given
# [18] = molecular target: T2, rHuman Erythropoietin R/Fc Chimera, CF; assay: as above
# [19] = molecular target: T16, rHuman IGF-1 sR, (IGF-1 sR), CF (human, UniProt P08069 31-932); assay: as above
# T16 construct: The column head prints 'IGF-1'; The antigen panel of the assay holds the soluble IGF-1 receptor, not the ligand; also called insulin-like growth factor-1 soluble receptor
# [20] = molecular target: T17, rHuman Notch-1/Fc Chimera, CF (human, UniProt P46531 19-526); assay: as above
# T17 construct: Bought protein; Fc part of the bought chimera not given
# [21] = molecular target: T18, rHuman EGF R/Fc Chimera, CF (human, UniProt P00533 25-645); assay: as above
# T18 construct: Bought protein; also called epidermal growth factor receptor; Fc part of the bought chimera not given
# [22] = molecular target: T19, rHuman P-Cadherin/Fc Chimera, CF (human, UniProt P22223 108-654); assay: as above
# T19 construct: Bought protein; Fc part of the bought chimera not given
binder,measurement,setting,value
"Fab VH5-51_IGHD5-18*01>3_IGHJ4*01 G100K/G104T/S56G & V3-4_IGLJ1*01 (Fab, V domains shown, Fab expressed in E. coli: VH joined to CH1 (Plasmid A, His6 and Flag tags), VL joined to lambda CL (Plasmid E); also called H:KT S56G) VH: EVQLVQSGAEVKKPGESLKISCKGSGYSFTSYWIGWVRQMPGKGLEWMGIIYPGDGDTRYSPSFQGQVTISADKSISTAYLQWSSLKASDTAMYYCARRKYSYTYDYFDYWGQGTLVTVSS VL: QTVVTQEPSFSVSPGGTVTLTCGLSSGSVSTSYYPSWYQQTPGQAPRTLIYSTNTRSSGVPDRFSGSILGNKAALTITGAQADDESDYYCVLYMGSGISYVFGTGTKVTVL",ELISA (Signal-Noise),[1],0.05
same,ECL signal,[2],8430
"Fab VH5-51_IGHD5-18*01>3_IGHJ4*01 G100K/G104T (H:KT) & V3-4_IGLJ1*01 V91A (Fab, V domains shown, Fab; Expressed from Plasmid A (CH1, His6 and Flag tags) and Plasmid E (lambda CL); also called KT & V91A) VH: EVQLVQSGAEVKKPGESLKISCKGSGYSFTSYWIGWVRQMPGKGLEWMGIIYPGDSDTRYSPSFQGQVTISADKSISTAYLQWSSLKASDTAMYYCARRKYSYTYDYFDYWGQGTLVTVSS VL: QTVVTQEPSFSVSPGGTVTLTCGLSSGSVSTSYYPSWYQQTPGQAPRTLIYSTNTRSSGVPDRFSGSILGNKAALTITGAQADDESDYYCALYMGSGISYVFGTGTKVTVL",ECL signal,[3],682
same,ECL signal,[4],833
same,ECL signal,[5],484
same,ECL signal,[6],33400
same,ECL signal,[7],1120
same,ECL signal,[8],675
same,ECL signal,[9],632
same,ECL signal,[10],1110
"Fab VH5-51_IGHD5-18*01>3_IGHJ4*01 G100K/G104T G24T/S28R/G35V & V3-4_IGLJ1*01 V91L/S96P S52G (Fab, V domains shown, Fab made in E. coli; VH was cloned in Plasmid A (CH1, His6 and Flag tags) and VL in Plasmid E (lambda CL); also called H:KT TRV & L:LP S52G) VH: EVQLVQSGAEVKKPGESLKISCKTSGYRFTSYWIVWVRQMPGKGLEWMGIIYPGDSDTRYSPSFQGQVTISADKSISTAYLQWSSLKASDTAMYYCARRKYSYTYDYFDYWGQGTLVTVSS VL: QTVVTQEPSFSVSPGGTVTLTCGLSSGSVSTSYYPSWYQQTPGQAPRTLIYGTNTRSSGVPDRFSGSILGNKAALTITGAQADDESDYYCLLYMGPGISYVFGTGTKVTVL",koff,[11],0.0147 s⁻¹
same,Kd,[12],5 nM
same,kon,[13],2.96e+06 M⁻¹ s⁻¹
"Fab VH5-51_IGHD5-18*01>3_IGHJ4*01 G100K/G104T (H:KT) & V3-4_IGLJ1*01 G23L (Fab, V domains shown, Fab (CH1 with His6/Flag tags from Plasmid A, lambda CL from Plasmid E); also called G100K/G104T & G23L) VH: EVQLVQSGAEVKKPGESLKISCKGSGYSFTSYWIGWVRQMPGKGLEWMGIIYPGDSDTRYSPSFQGQVTISADKSISTAYLQWSSLKASDTAMYYCARRKYSYTYDYFDYWGQGTLVTVSS VL: QTVVTQEPSFSVSPGGTVTLTCLLSSGSVSTSYYPSWYQQTPGQAPRTLIYSTNTRSSGVPDRFSGSILGNKAALTITGAQADDESDYYCVLYMGSGISYVFGTGTKVTVL",ELISA signal,[14],0.1
"Fab VH5-51_IGHD5-18*01>3_IGHJ4*01 G100K/G104T G24T/S28R/G35V & V3-4_IGLJ1*01 V91L/S96P (Fab, V domains shown, Fab made in E. coli; VH was cloned in Plasmid A (CH1, His6 and Flag tags) and VL in Plasmid E (lambda CL); also called H:KT TRV & L:LP) VH: EVQLVQSGAEVKKPGESLKISCKTSGYRFTSYWIVWVRQMPGKGLEWMGIIYPGDSDTRYSPSFQGQVTISADKSISTAYLQWSSLKASDTAMYYCARRKYSYTYDYFDYWGQGTLVTVSS VL: QTVVTQEPSFSVSPGGTVTLTCGLSSGSVSTSYYPSWYQQTPGQAPRTLIYSTNTRSSGVPDRFSGSILGNKAALTITGAQADDESDYYCLLYMGPGISYVFGTGTKVTVL",koff,[11],0.036 s⁻¹
same,Kd,[12],3.3 nM
same,kon,[13],1.1e+07 M⁻¹ s⁻¹
"Fab VH1-46_IGHD6-6*01_IGHJ1*01 S102A/S103P/S104F/H111F (H:APFF) & L6_IGKJ1*01 S28N/S30D/S31H (L:NDH) (Fab, V domains shown, Fab; also called H:APFF & L:NDH; APFF-NDH) VH: QVQLVQSGAEVKKPGASVKVSCKASGYTFTSYYMHWVRQAPGQGLEWMGIINPSGGSTSYAQKFQGRVTMTRDTSTSTVYMELSSLRSEDTAVYYCAREEYAPFSAEYFQFWGQGTLVTVSS VL: EIVLTQSPATLSLSPGERATLSCRASQNVDHYLAWYQQKPGQAPRLLIYDASNRATGIPARFSGSGSGTDFTLTISSLEPEDFAVYYCQQRSNWPPWTFGQGTKVEIKR",fold affinity against the parent antibody APFF mutant,[15],4 fold
"Fab VH1-46_IGHD6-6*01_IGHJ1*01 S102A/S103P/S104F/H111F/G56A (H:APFF G56A) & L6_IGKJ1*01 S28N/S30D/S31H (L:NDH) (Fab, V domains shown, Fab; also called H:APFF G56A & L:NDH) VH: QVQLVQSGAEVKKPGASVKVSCKASGYTFTSYYMHWVRQAPGQGLEWMGIINPSGASTSYAQKFQGRVTMTRDTSTSTVYMELSSLRSEDTAVYYCAREEYAPFSAEYFQFWGQGTLVTVSS VL: EIVLTQSPATLSLSPGERATLSCRASQNVDHYLAWYQQKPGQAPRLLIYDASNRATGIPARFSGSGSGTDFTLTISSLEPEDFAVYYCQQRSNWPPWTFGQGTKVEIKR",fold affinity against the H:APFF & L:wt parental antibody mutant,[15],8 fold
"Fab VH3-23_IGHD2-21*01>3_IGHJ6*01 I107A & V2-13_IGLJ2*01 (Fab, V domains shown, Tested as a Fab made in E. coli) VH: not shown VL: SSELTQDPAVSVALGQTVRITCQGDSLRSYYASWYQQKPGQAPVLVIYGKNNRPSGIPDRFSGSSSGNTASLTITGAQAEDEADYYCNSRDSSGNHLVVFGGGTKLTVL",ECL signal/blank ratio (quantity not given),[16],1.5
same,ECL signal/blank ratio (quantity not given),[17],4.8
same,ECL signal/blank ratio (quantity not given),[18],43.6
same,ECL signal/blank ratio (quantity not given),[19],1.1
same,ECL signal/blank ratio (quantity not given),[20],2.7
same,ECL signal/blank ratio (quantity not given),[21],4.3
same,ECL signal/blank ratio (quantity not given),[22],19.6
"Fab VH3-23_IGHD2-21*01>3_IGHJ6*01 S108A & V2-13_IGLJ2*01 (Fab, V domains shown, Tested as a Fab made in E. coli) VH: not shown VL: SSELTQDPAVSVALGQTVRITCQGDSLRSYYASWYQQKPGQAPVLVIYGKNNRPSGIPDRFSGSSSGNTASLTITGAQAEDEADYYCNSRDSSGNHLVVFGGGTKLTVL",ECL signal/blank ratio (quantity not given),[16],1.3
same,ECL signal/blank ratio (quantity not given),[17],1.9
same,ECL signal/blank ratio (quantity not given),[18],9.5
same,ECL signal/blank ratio (quantity not given),[19],1.2
same,ECL signal/blank ratio (quantity not given),[20],1.5
same,ECL signal/blank ratio (quantity not given),[21],2
same,ECL signal/blank ratio (quantity not given),[22],4.8
